We go through 4 molecules from publication PMC3326314 (Nucleic Acids Research, 2011).

In one data set the target is T1, Rap1 WT (Rap1-fl) (Saccharomyces cerevisiae, UniProt P11938 1-827).
T1 sequence: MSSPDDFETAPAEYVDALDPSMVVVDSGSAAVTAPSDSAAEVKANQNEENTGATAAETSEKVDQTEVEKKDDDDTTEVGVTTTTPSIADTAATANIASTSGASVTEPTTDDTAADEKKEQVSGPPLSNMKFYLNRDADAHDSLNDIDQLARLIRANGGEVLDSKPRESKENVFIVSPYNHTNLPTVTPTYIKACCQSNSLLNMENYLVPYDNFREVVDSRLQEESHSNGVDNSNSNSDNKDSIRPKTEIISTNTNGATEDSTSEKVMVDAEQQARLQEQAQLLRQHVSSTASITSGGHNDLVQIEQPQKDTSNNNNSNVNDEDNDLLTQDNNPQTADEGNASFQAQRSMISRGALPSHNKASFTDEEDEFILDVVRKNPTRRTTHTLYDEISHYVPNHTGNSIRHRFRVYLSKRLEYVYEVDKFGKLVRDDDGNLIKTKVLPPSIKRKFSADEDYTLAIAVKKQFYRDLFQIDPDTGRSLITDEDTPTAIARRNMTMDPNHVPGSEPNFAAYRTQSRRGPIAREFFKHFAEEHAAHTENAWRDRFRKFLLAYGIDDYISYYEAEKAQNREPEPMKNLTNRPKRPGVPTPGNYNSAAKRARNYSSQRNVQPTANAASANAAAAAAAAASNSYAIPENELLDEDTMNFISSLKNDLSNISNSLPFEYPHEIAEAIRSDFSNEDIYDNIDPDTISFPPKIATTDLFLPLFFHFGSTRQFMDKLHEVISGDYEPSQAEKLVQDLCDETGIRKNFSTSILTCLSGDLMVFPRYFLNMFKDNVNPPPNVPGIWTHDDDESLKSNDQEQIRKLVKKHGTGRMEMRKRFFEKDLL
In words: SAXS and AUC.

The target in data set [1] is T2, Rap1[358-827] (Saccharomyces cerevisiae, UniProt P11938 358-827).
T2 sequence: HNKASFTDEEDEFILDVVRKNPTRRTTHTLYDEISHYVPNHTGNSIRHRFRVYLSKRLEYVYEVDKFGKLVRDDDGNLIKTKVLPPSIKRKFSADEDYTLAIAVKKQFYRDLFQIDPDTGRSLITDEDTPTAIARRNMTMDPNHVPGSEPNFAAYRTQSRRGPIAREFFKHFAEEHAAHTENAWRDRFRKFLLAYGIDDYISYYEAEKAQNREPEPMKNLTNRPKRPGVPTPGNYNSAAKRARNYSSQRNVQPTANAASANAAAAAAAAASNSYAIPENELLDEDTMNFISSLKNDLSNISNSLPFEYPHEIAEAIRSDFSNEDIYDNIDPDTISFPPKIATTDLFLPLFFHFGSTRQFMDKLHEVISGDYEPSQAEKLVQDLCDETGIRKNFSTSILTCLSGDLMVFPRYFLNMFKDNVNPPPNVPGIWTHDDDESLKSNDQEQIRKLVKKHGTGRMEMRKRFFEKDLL
In words: SAXS and AUC.

The target of another data set is T3, Rap1[117-827] (Saccharomyces cerevisiae, UniProt P11938 117-827).
T3 sequence: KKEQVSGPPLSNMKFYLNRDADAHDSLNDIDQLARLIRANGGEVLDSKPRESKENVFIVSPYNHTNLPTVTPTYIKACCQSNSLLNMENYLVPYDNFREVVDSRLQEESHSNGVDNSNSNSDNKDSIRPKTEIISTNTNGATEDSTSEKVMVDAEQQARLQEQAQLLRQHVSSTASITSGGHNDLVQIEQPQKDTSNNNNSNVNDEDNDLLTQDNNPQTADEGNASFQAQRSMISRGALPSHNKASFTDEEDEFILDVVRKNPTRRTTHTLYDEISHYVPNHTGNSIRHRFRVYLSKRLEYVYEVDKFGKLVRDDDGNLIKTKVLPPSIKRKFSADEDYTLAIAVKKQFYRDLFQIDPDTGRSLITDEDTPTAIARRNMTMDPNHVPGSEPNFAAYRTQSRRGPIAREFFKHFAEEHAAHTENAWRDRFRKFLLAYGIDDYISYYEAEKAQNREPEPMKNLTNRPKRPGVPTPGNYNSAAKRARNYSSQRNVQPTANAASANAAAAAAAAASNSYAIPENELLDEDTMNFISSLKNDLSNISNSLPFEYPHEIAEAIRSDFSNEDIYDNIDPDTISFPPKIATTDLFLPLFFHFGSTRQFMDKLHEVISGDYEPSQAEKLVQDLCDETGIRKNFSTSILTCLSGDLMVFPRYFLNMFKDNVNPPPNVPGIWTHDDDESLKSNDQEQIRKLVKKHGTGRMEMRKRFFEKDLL
In words: SAXS and AUC.

Data set [2] has as its target T2, Rap1[358-827]. In words: X-ray crystallography.
A further data set deals with T4, Rap1Δ[591-597] (Saccharomyces cerevisiae, UniProt P11938 1-827, del591-597).
T4 sequence: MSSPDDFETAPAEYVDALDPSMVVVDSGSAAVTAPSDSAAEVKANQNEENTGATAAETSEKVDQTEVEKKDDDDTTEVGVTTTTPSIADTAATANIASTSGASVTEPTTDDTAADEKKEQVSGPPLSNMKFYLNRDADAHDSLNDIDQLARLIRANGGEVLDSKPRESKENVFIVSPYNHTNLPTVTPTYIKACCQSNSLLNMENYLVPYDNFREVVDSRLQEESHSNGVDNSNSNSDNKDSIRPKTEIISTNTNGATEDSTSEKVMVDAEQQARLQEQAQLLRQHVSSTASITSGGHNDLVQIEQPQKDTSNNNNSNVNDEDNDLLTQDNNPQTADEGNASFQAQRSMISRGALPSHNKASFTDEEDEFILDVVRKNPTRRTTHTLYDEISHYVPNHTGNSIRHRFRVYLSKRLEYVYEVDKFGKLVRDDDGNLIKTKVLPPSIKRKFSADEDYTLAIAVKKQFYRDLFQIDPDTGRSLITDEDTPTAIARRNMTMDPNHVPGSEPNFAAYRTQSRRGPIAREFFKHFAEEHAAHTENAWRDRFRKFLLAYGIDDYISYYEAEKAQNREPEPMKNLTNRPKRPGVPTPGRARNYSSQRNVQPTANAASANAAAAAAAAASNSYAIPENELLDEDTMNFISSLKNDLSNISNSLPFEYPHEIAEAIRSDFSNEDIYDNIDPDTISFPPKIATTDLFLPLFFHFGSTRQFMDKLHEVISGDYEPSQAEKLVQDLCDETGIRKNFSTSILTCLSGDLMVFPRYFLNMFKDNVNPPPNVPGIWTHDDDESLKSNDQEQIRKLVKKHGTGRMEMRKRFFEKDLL
In words: EMSA. A general note: A gel shift assay detects complexes by their altered migration in electrophoresis.

In a further data set the target is T5, Rap1[Y592A-K597A] (Saccharomyces cerevisiae, UniProt P11938 1-827, Y592A;K597A).
T5 sequence: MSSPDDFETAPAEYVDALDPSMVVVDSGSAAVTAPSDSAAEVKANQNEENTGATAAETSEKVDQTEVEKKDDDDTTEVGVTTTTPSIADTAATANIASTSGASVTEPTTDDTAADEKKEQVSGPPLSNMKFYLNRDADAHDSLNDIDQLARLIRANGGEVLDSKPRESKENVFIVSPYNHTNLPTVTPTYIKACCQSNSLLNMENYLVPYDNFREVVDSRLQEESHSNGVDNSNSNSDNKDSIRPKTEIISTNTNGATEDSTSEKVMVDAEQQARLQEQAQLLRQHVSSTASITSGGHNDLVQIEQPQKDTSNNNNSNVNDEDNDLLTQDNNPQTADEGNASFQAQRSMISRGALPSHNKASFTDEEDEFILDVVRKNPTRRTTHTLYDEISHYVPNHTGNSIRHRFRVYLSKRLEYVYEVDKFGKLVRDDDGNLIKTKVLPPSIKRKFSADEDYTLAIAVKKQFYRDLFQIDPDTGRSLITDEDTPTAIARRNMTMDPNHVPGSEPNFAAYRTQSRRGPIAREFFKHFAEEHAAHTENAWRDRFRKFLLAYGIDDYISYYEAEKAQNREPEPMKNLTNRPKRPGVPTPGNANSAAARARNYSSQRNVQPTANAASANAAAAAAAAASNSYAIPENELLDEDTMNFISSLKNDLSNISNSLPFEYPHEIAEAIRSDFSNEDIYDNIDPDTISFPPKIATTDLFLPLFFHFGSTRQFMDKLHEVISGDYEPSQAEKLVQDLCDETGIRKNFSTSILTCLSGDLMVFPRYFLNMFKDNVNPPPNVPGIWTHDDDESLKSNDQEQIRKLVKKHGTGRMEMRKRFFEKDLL
In words: EMSA.

A further data set concerns the target T6, Rif2 full length (UniProt Q06208 1-395).
T6 sequence (looked up): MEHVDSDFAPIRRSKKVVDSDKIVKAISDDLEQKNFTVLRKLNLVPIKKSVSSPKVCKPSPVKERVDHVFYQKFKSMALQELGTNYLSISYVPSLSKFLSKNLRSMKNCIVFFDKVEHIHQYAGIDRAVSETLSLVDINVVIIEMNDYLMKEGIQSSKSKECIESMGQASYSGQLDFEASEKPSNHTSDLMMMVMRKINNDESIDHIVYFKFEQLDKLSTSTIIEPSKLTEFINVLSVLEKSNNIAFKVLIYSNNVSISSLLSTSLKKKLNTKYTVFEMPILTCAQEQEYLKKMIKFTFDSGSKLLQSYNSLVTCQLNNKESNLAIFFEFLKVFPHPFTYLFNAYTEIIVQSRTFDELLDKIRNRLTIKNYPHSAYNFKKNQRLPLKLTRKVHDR
In words: NMR titration.

B1: 20-mer DNA duplex (AUC and SAXS) (dsDNA)
DNA 1: TCCTGGTGTGTGGGTGTGCG
DNA 2: GACGCACACCCACACACCAG
For the molecule B1, the binding result with Rap1 WT (Rap1-fl), with Rap1[358-827] [1] and with Rap1[117-827] was “binds” throughout.

B2: 31-mer crystallography duplex (dsDNA)
DNA 1: ACCTGGTGTGTGGGTGTTGTGTGGTGTTCAC
DNA 2: GTGTGAACACCACACAACACCCACACACCAG
As to B2, the binding result with Rap1[358-827] [2] is “binds”.

B3: 21-mer telomeric DNA duplex (ITC and EMSA) (dsDNA)
DNA 1: TCCTGGTGTGTGGGTGTGCGG
DNA 2: GCACACCCACACACCAGGACC
In the case of B3, the binding result with Rap1Δ[591-597] and with Rap1[Y592A-K597A] was “binds” in each case.

B4: Rap1[675-827] (domain or fragment, S. cerevisiae, UniProt P11938 675-827, looked up)
chain: SDFSNEDIYDNIDPDTISFPPKIATTDLFLPLFFHFGSTRQFMDKLHEVISGDYEPSQAEKLVQDLCDETGIRKNFSTSILTCLSGDLMVFPRYFLNMFKDNVNPPPNVPGIWTHDDDESLKSNDQEQIRKLVKKHGTGRMEMRKRFFEKDLL
With B4, the binding result in the data set with Rif2 full length was “binds”.
